This is an account of results in US20230250134A1 (University of Washington, published 2023).

Test [1] has as its target T1, SARS-COV-2 Spike glycoprotein receptor binding domain (RBD) (SARS-CoV-2, UniProt P0DTC2 319-541).
Test [2] addresses SARS-COV-2 Spike glycoprotein (SARS-CoV-2, UniProt P0DTC2 14-1208). Kind of test: estimated Kd for Spike (avidity), Table 10.
The target of test [3] is T1, SARS-COV-2 Spike glycoprotein receptor …. Kind of test: estimated Kd for RBD, Table 10.
Test [4] concerns the target SARS-COV-2 spike protein on authentic virus, strain 2019 n-COV/USA_WA1/2020 (SARS-CoV-2, UniProt P0DTC2 14-1273). Kind of test: cell-based or functional assay.

Where two headings read alike, the source gives them in different places.

B1: LCB3_v1.2-10GS-LCB1_v1.1 (LCB3-GS10-LCB1) (designed binder)
chain: NDDELHMQMTDLVYEALHFAKDEEIQKHVFQLFEKATKAYKNKDRQKLEKVVEELKELLERLLSGGSGGSGGSGDKENILQKIYEIMKTLDQLGHAEASMQVSDLIYEFMKQGDERLLEEAERLLEEVER
Consider B1, for which the Kd was 0.2 nM in test [1] and 0.1 nM in test [2].

B2: LCB1_v1.1-GS-LCB3_v1.2 (1GS3) (designed binder)
chain: DKENILQKIYEIMKTLDQLGHAEASMQVSDLIYEFMKQGDERLLEEAERLLEEVERGGGGSGGGGSGGGGSGGGGSGGGGSGGGGSGGGGSGGGGSGGGGSGGGGSGGGGSGGGGSGGGGSGGGGSGGGGSNDDELHMQMTDLVYEALHFAKDEEIQKHVFQLFEKATKAYKNKDRQKLEKVVEELKELLERLLS
With B2, the Kd was 0.2 nM in test [1] and 0.1 nM in test [2].

B3: LCB1_v1.1-PRO-LCB3_v1.2 (1PRO3) (designed binder)
chain: DKENILQKIYEIMKTLDQLGHAEASMQVSDLIYEFMKQGDERLLEEAERLLEEVERAGSGGSGGSGGSPVPSTPPTPSPSTPPTPSPSPVPSTPPTPSPSTPPTPSPSPVPSTPPTPSPSTPPTPSPSASGNDDELHMQMTDLVYEALHFAKDEEIQKHVFQLFEKATKAYKNKDRQKLEKVVEELKELLERLLS
For B3, the figures for the Kd in test [1] and in test [2] were 0.2 nM and 0.1 nM, respectively.

B4: LCB1-3 (designed binder)
chain: DKEWILQKIYEIMRLLDELGHAEASMRVSDLIYEFMKQGDERLLEEAERLLEEVER
For the molecule B4, the Kd in test [2] is 0.1 nM; in test [3] it was 0.2 nM. The “SARS-CoV-2 Neutralization IC50” value in test [4] was 0.01 nM.

B5: LCB6-1 (designed binder)
chain: DREQRLVRFLVRLASKFNLSPEQILQLFEVLEELLERGVSEEEIRKQLEEVAKELG
B5: the Kd in test [2] is 0.1 nM; in test [3] it was 0.2 nM. The “SARS-CoV-2 Neutralization IC50” value in test [4] stood at 0.01 nM.

B6: LCB3_v1.2-PRO-LCB1_v1.1 (3PRO1) (designed binder)
chain: NDDELHMQMTDLVYEALHFAKDEEIQKHVFQLFEKATKAYKNKDRQKLEKVVEELKELLERLLSAGSGGSGGSGGSPVPSTPPTPSPSTPPTPSPSPVPSTPPTPSPSTPPTPSPSPVPSTPPTPSPSTPPTPSPSASGDKENILQKIYEIMKTLDQLGHAEASMQVSDLIYEFMKQGDERLLEEAERLLEEVER
For the molecule B6, the figures for the Kd in test [1] and in test [2] were 0.2 nM and 0.1 nM, respectively.

B7: LCB1-12GS-LCB1 (designed binder)
chain: DKEWILQKIYEIMRLLDELGHAEASMRVSDLIYEFMKKGDERLLEEAERLLEEVERGGSGGSGSGGSGDKEWILQKIYEIMRLLDELGHAEASMRVSDLIYEFMKKGDERLLEEAERLLEEVER
On to B7, for which the Kd in test [3] is 0.2 nM. Besides, the “SARS-CoV-2 Neutralization IC50” value in test [4] was 0.01 nM.

B8: LCB6-2 (designed binder)
chain: DREQRLVRFLVRLASKFNLSMEQILILFDVLEELLERGVSEEEIRKILEEVAKEL
For B8, the Kd in test [2] is 0.1 nM; in test [3] it was 0.2 nM. In addition, the “SARS-CoV-2 Neutralization IC50” value in test [4] worked out at 0.01 nM.

B9: LCB1-6GS-LCB1 (designed binder)
chain: DKEWILQKIYEIMRLLDELGHAEASMRVSDLIYEFMKKGDERLLEEAERLLEEVERGGSGGSDKEWILQKIYEIMRLLDELGHAEASMRVSDLIYEFMKKGDERLLEEAERLLEEVER
For B9, the Kd in test [3] is 0.2 nM. Besides, the “SARS-CoV-2 Neutralization IC50” value in test [4] was found to be 0.01 nM.

B10: LCB3_v1.2-GS-LCB1_v1.1 (3GS1) (designed binder)
chain: NDDELHMQMTDLVYEALHFAKDEEIQKHVFQLFEKATKAYKNKDRQKLEKVVEELKELLERLLSGGGGSGGGGSGGGGSGGGGSGGGGSGGGGSGGGGSGGGGSGGGGSGGGGSGGGGSGGGGSGGGGSGGGGSGGGGSDKENILQKIYEIMKTLDQLGHAEASMQVSDLIYEFMKQGDERLLEEAERLLEEVER
On to B10, for which the Kd in test [1] is 0.2 nM; in test [2], 0.1 nM.
